T1: recombinant hCD127 (Sino Biologicals, reference 10975-H08H) (human, UniProt P16871 21-239)
T1 construct: also called rCD127; CD127 protein
T1 chain: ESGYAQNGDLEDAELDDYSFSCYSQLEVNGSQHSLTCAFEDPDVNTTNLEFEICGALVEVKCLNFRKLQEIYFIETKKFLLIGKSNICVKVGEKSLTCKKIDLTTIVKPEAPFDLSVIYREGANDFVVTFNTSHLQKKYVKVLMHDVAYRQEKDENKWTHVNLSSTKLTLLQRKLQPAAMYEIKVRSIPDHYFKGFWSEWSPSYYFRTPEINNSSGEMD


How the values were obtained:
[1] = molecular target: T1, recombinant hCD127 (Sino Biologicals, …); assay: ELISA, recombinant hCD127 immobilised at 1 µg/ml, purified antibody
Procedure: The binding activity of the anti hCD127 antibody was assessed by ELISA (Enzyme-linked immunosorbent assay). For the ELISA assay, recombinant hCD127 (Sino Biologicals, Beijing, China; reference 10975-H08H) was immobilized on plastic at 1μg/ml and purified antibody were added to measure binding.

[2] = molecular target: T1, recombinant hCD127 (Sino Biologicals, …); assay: ELISA on immobilised recombinant hCD127 (1 µg/ml) after storage under different conditions
Procedure: Humanized Effi3 antibody (clone VH3VL4) was incubated at 4° C., 37° C., at −80° C. or at room Temperature for 28 days. The binding activity was tested by ELISA assay, recombinant hCD127 (Sino Biologicals, Beijing, China; reference 10975-H08H) was immobilized on plastic at 1 μg/ml and dilutions of supernatant were added to measure binding. […] Increase doses of Mabs were added to measure binding.

| EC50 [1] [ng/mL] | EC50 (read off the curve) [2] [ng/mL] | Binder |
| --- | --- | --- |
| 4 | ~6 | Effi3-VH3VL4 (antibody, human IgG1, kappa, V domains shown, Humanized from rat MD707-3; also called Effi3 H3L4; VHvar3+VLvar4) VH: AVQLVESGGGLVQPGGSLKITCAASGFTFTNAAMYWVRQAPGKGLEWVARIRTKANNYATYYADSVKGRFTISRDDSKSTVYLQMDSVKTEDTATYYCIVVVLTTTRDYFDYWGQGVLVTVSS VL: DIVLTQSPSSLPVTPGEPASISCRSSQDLLTVKGITSLYWFLQKPGQSPKLLIYRMSNRDSGVPDRFSGSGSGTDFTLKISRVEAEDVGTYYCAQFLEYPHTFGAGTKLELKR |
| 4 | – | Effi3-VH3VL3 (antibody, human IgG1, kappa, V domains shown, Humanized from rat MD707-3; They are built here from the variable and constant entries so that the signal peptide is left out; also called Effi3 H3L3; VHvar3+VLvar3) VH: AVQLVESGGGLVQPGGSLKITCAASGFTFTNAAMYWVRQAPGKGLEWVARIRTKANNYATYYADSVKGRFTISRDDSKSTVYLQMDSVKTEDTATYYCIVVVLTTTRDYFDYWGQGVLVTVSS VL: DIVLTQSPSSLPVTPGEPASISCRSSQSLLTVKGITSLYWFLQKPGQSPKLLIYRMSNRDSGVPDRFSGSGSETDFTLKISRVEAEDVGTYYCAQFLEYPHTFGAGTKLELKR |
| 3.4 | – | MD707-3 (antibody, V domains shown, Rat anti-human CD127 antibody; also called MD707-3 chimeric antibody; MD707-3 mAb) VH: AVHLVESGGGLVQPKESLKISCAASGFTFSNAAMYWVRQAPGKGLEWVARIRTKANNYATYYAESVKGRFTISRDDSKSMVYLQMDNVKTDDTAMYYCIVVVLTTTRDYFDYWGQGVMVTVSS VL: DIVLTQAPLSVSVTPGESASISCRSSQSLLTVKGITSLYWFLQKPGKSPQLLIYRMSNLASGVPDRFRGSGSETDFTLKISKVETEDVGVYYCAQFLEYPHTFGAGTKLELKR |
